Data: patent US20250250334A1 (MEDICOVESTOR, published 2025)

Assays:
[1] = biological target: T1, fusion protein containing the extracellular domain of cynomolgus FRalpha and a polyhistidine tag (cynomolgus, UniProt A0A2K5U044 25-233); assay: ELISA, coated cynomolgus FRalpha ECD-His
T1 construct: extracellular domain; Coated on ELISA plates; also called cynomolgus FRalpha extracellular domain; not shown: polyhistidine tag
Protocol: (§1) The affinity of each IgG1 for FRalpha was confirmed by ELISA. Briefly, a fusion protein containing the extracellular domain of human FRalpha and a polyhistidine tag was used to coat ELISA plates, which were washed three times with phosphate-buffered saline (PBS) containing 0.1 percent polysorbate 20 (PBST), then blocked with PBS containing 5 percent powdered milk (PBSM), and then washed three more times with PBST. Wells were then incubated with antibodies at varying concentrations for 60 minutes at room temperature in 1 percent PBSM. Wells were then washed three times with PBST, after which the secondary, horseradish-peroxidase-conjugated antibody anti-human-IgG-Fc-HRP (ab97225, Abcam, United Kingdom) was added at a 1:8000 dilution in 1 percent PBSM for 50 minutes at room temperature. The wells were then washed six times with PBST, after which 3,3′, 5,5″-tetramethylbenzidine (TMB) was added. The reaction was stopped with 2 molar sulfuric acid, and the TMB diamine product was quantified at 450 nanometers in a plate reader. Results are depicted in FIG. 2.
The ELISA of the preceding paragraph was repeated with a fusion protein containing the extracellular domain of cynomolgus FRalpha and a polyhistidine tag. Results are depicted in FIG. 3.

[2] = biological target: T2, human FRalpha expressed on cells (transfected HEK293 cells; SKOV3 human ovarian cancer cells) (human, UniProt P15328 25-234); assay: flow cytometry, HEK293 cells transfected to express FRalpha
T2 construct: whole, on cells; also called human folate receptor alpha
Protocol: (§2) The affinity of each antibody was then assessed by flow cytometry. Briefly, HEK293 cells transfected to express FRalpha were washed with fluorescence-activated cell sorting (FACS) buffer, to which the IgGs were added at varying concentrations and incubated at 4 degrees Celsius for 60 minutes. The cells were then centrifuged and washed twice in FACS buffer. A phycoerythrin-labelled anti-human IgG, Fcgamma antibody (109-115-098; Jackson ImmunoResearch, Pennsylvania, United States) was then added to the cells at a 1:200 dilution and incubated at 4 degrees Celsius for 30 minutes. The cells were then washed, resuspended in FACS buffer, and counted by flow cytometry. Results are depicted in FIG. 4.

[3] = biological target: T3, fusion protein containing the extracellular domain of human FRalpha and a polyhistidine tag (human, UniProt P15328 25-233); assay: ELISA, coated human FRalpha ECD-His
T3 construct: extracellular domain; Coated on ELISA plates; also called human FRalpha extracellular domain; not shown: polyhistidine tag
Protocol: as §1

[4] = biological target: T2, human FRalpha expressed on cells …; assay: flow cytometry, SKOV3 human ovarian cancer cells that express FRalpha
Protocol: as §2
The flow cytometry experiment of the preceding paragraph was repeated with a human ovarian cancer cell line that expresses FRalpha, SKOV3. Results are depicted in FIGS. 5A and 5B. […] The antibody according to SEQ ID NO: 3-12 was then designated the lead antibody for further development.

T2 sequence (P15328 25-234): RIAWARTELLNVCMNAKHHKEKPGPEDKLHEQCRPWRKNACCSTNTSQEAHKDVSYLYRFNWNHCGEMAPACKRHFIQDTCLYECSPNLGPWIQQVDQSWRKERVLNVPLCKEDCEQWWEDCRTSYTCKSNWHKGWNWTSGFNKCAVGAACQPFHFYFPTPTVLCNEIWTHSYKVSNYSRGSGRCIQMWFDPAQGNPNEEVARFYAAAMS
T1 sequence (A0A2K5U044 entry or part of it): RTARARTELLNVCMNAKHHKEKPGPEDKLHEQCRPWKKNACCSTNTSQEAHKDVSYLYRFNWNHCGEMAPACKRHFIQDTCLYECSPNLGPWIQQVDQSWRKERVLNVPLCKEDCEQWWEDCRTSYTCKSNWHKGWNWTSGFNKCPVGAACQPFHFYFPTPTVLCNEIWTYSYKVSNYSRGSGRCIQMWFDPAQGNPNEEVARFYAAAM
T3 sequence (P15328 25-233 limits assumed): as the sequence (A0A2K5U044 entry or part of it) above, with T2I, R4W, K37R, P146A, Y171H counted along it

Row | EC50 [1] [nM] | EC50 [2] [nM] | EC50 [3] [nM] | EC50 [4] [nM] | Binder
1 | ~0.16 | ~4 | ~0.12 | – | Mirvetuximab (antibody, V domains shown) VH: QVQLVQSGAEVVKPGASVKISCKASGYTFTGYFMNWVKQSPGQSLEWIGRIHPYDGDTFYNQKFQGKATLTVDKSSNTAHMELLSLTSEDFAVYYCTRYDGSRAMDYWGQGTTVTVSS VL: DIVLTQSPLSLAVSLGQPAIISCKASQSVSFAGTSLMHWYHQKPGQQPRLLIYRASNLEAGVPDRFSGSGSKTDFTLTISPVEAEDAATYYCQQSREYPYTFGGGTKLEIK
2 | ~0.06 | ~5 | ~0.05 | < 1 | lead fully-human anti-FRalpha IgG1 antibody (antibody according to SEQ ID NO: 3-12) (antibody, V domains shown, Fully human IgG1/kappa; also called lead antibody) VH: EVQLLESGGGLVKPGGSLRLSCAASGFTFSSYTMNWVRQAPGKGLEWVSSISSGGGYIYYADSVKDRFTISRDNAKNSLYLQMNSLRAEDTAVYYCAKGDTIMIISAWGQGTTVTVSS VL: DIQLTQSPSTLSASVGDRVTITCRASQSISSWLAWHQQKPGKAPKLLIYAASSLQNGVPSRFSGSGFGTDFTLTISSLQPEDFATYYCQQASSFPLTFGGGTKVEIKR
